Laboratory results as given in US20240139289A1 (EXTEND BIOSCIENCES, published 2024).
Ends that are not written are not given here.

Key:
[1] = molecular target: T1, human parathyroid hormone receptor 1 (PTHR1) (human, UniProt Q03431 27-593); test: cell-based or functional assay
T1 sequence (looked up): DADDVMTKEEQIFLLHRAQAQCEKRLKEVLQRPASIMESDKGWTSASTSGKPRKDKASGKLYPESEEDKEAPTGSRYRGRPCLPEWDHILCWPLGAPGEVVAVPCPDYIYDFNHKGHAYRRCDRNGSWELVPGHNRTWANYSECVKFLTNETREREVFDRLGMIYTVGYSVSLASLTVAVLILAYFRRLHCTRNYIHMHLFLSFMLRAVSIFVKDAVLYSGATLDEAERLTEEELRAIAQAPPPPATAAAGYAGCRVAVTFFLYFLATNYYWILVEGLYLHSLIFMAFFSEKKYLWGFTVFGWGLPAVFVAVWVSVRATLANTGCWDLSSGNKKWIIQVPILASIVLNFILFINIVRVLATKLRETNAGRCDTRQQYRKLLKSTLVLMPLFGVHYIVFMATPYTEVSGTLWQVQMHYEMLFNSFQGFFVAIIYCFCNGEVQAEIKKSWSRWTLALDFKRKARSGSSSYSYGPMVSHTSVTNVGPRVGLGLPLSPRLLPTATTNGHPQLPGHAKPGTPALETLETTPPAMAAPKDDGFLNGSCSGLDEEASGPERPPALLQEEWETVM

[2] = molecular target: T2, Vitamin D binding protein (DBP) (Homo sapiens (Human)) (UniProt P02774); test: BLI (Octet Red96), biotinylated EXT607 on streptavidin tips, DBP 0-75 µM
T2 sequence: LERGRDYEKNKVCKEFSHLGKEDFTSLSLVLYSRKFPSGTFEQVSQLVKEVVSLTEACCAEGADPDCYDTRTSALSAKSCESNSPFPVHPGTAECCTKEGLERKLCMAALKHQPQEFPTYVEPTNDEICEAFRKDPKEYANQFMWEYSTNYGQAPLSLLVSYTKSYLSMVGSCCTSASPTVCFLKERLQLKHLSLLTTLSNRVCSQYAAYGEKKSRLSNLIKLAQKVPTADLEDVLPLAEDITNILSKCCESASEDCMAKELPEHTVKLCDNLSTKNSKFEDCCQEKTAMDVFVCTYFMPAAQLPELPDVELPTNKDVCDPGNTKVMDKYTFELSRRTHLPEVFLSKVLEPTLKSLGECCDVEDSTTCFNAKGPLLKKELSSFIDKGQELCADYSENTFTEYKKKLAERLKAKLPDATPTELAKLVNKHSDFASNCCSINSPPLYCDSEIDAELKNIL

[3] = molecular target: T2, Vitamin D binding protein (DBP) (Homo sapiens (Human)); test: BLI (Octet Red96), biotinylated EXT607 on streptavidin tips, DBP 0-75 µM, steady-state fit
[4] = molecular target: T1, human parathyroid hormone receptor 1 …; test: cell-based or functional assay; remark: listed apart in the source
[5] = molecular target: T2, Vitamin D binding protein (DBP) (Homo sapiens (Human)); test: BLI (Octet Red96), biotinylated EXT608 on streptavidin tips, DBP 0-75 µM
[6] = molecular target: T2, Vitamin D binding protein (DBP) (Homo sapiens (Human)); test: BLI (Octet Red96), biotinylated EXT608 on streptavidin tips, DBP 0-75 µM, steady-state fit

B1: EXT607 (PTH(1-34)-Cys-PEG36-25-hydroxy-vitamin D conjugate, C-terminal acid, R = OH) (peptide)
peptide: SVSEIQLMHNLGKHLNSMERVEWLRKKLQDVHNFC
modifications: C-terminal Cys (position 35) carries succinimido-propionylamino-PEG36-propionyl-aminopropyl-25-hydroxy-Vitamin D on its thiol; C-terminus is free acid (-OH)
EC50, cell-based calcium flux assay in agonist mode (percent efficacy) [1]: 21 nM | maximum response (BLI shift) [2]: 1.79 nm | Kd [3]: 8.1 µM

B2: EXT616 (PTH-PEG10 kDa-VitD) (peptide)
peptide: SVSEIQLMHNLGKHLNSMERVEWLRKKLQDVHNFC
modifications: C-terminal Cys thiol conjugated through maleimide-PEG ~10,000 Da (~227 units) to VitD-NH2 (25-hydroxy vitamin D, C3 position); C-terminal amide
PTHR1 EC50, calcium mobilization assay in agonist mode [4]: 33.6 nM

B3: EXT608 (PTH(1-34)-Cys-PEG36-25-hydroxy-vitamin D conjugate, C-terminal amide, R = NH2) (peptide)
peptide: SVSEIQLMHNLGKHLNSMERVEWLRKKLQDVHNFC
modifications: C-terminal Cys (position 35) carries succinimido-propionylamino-PEG36-propionyl-aminopropyl-25-hydroxy-Vitamin D on its thiol; C-terminal amide (-NH2)
EC50, cell-based calcium flux assay in agonist mode (percent efficacy) [1]: 22 nM | maximum response (BLI shift) [5]: 1.79 nm | Kd [6]: 5.2 µM | PTHR1 EC50, calcium mobilization assay in agonist mode [4]: 28.6 nM

B4: EXT617 (PTH-PEG20 kDa-VitD) (peptide)
peptide: SVSEIQLMHNLGKHLNSMERVEWLRKKLQDVHNFC
modifications: C-terminal Cys thiol conjugated through maleimide-PEG ~20,000 Da (~455 units) to VitD-NH2 (25-hydroxy vitamin D, C3 position); C-terminal amide
fold increase of PTHR1 EC50 against the conjugates with shorter PEG linkers [1]: ~7 fold | PTHR1 EC50, calcium mobilization assay in agonist mode [4]: 221 nM

SVSEIQLMHNLGKHLNSMERVEWLRKKLQDVHNFC-NH2 (not fully specified (residue 35); also: acetate salt) [EXT615 (PTH-PEG5 kDa-VitD)]
PTHR1 EC50, calcium mobilization assay in agonist mode [4]: 29.9 nM

SVSEIQLMHNLGKHLNSMERVEWLRKKLQDVHNFC-NH2 (not fully specified (residue 35); also: acetate salt) [EXT606 (PTH-cys-PEG24-VitD)]
PTHR1 EC50, calcium mobilization assay in agonist mode [4]: 30.5 nM

SVSEIQLMHNLGKHLNSMERVEWLRKKLQDVHNFC-NH2 (not fully specified (residue 35); also: acetate salt) [EXT611 (PTH-cys-PEG12-VitD)]
PTHR1 EC50, calcium mobilization assay in agonist mode [4]: 32.3 nM
